This experiment addresses T1, His-SlmA/SBS (E. coli), P0C093.
T1 chain: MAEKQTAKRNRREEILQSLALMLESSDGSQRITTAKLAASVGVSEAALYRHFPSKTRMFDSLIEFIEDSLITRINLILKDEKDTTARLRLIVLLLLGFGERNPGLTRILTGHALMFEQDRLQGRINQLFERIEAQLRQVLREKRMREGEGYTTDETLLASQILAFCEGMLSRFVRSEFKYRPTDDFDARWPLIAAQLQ
Put plainly: BLI. Conditions: remark: other sources report otherwise.

Kd data for one molecule are collected here from article PMC4364296.

One may read the Kd as the concentration at which binding is half-saturated. Lower therefore signals tighter binding.

B1: FtsZ-360, P0A9A6 1-360 (domain or fragment)
chain: MFEPMELTNDAVIKVIGVGGGGGNAVEHMVRERIEGVEFFAVNTDAQALRKTAVGQTIQIGSGITKGLGAGANPEVGRNAADEDRDALRAALEGADMVFIAAGMGGGTGTGAAPVVAEVAKDLGILTVAVVTKPFNFEGKKRMAFAEQGITELSKHVDSLITIPNDKLLKVLGRGISLLDAFGAANDVLKGAVQGIAELITRPGLMNVDFADVRTVMSEMGYAMMGSGVASGEDRAEEAAEMAISSPLLEDIDLSGARGVLVNITAGFDLRLDEFETVGNTIRAFASDNATVVIGTSLDPDMNDELRVTVVATGIGMDKRPEITLVTNKQVQQPVMDRYQQHGMAPLTQEQKPVAKVVND
For the molecule B1, the Kd is 82 µM.
